The target of the experiment is T1, B3GNT2 (Homo sapiens, UniProt Q9NY97).
T1 construct: The respective ORFs of candidate genes [CD274 (NM_014143), MCL1 (NM_021960), JUNB (NM_002229), and B3GNT2 (NM_006577)] were synthesized; expressed in transfected cells; host or cells: A375 melanoma cells (lentiviral ORF overexpression)
T1 sequence (Q9NY97 1-397): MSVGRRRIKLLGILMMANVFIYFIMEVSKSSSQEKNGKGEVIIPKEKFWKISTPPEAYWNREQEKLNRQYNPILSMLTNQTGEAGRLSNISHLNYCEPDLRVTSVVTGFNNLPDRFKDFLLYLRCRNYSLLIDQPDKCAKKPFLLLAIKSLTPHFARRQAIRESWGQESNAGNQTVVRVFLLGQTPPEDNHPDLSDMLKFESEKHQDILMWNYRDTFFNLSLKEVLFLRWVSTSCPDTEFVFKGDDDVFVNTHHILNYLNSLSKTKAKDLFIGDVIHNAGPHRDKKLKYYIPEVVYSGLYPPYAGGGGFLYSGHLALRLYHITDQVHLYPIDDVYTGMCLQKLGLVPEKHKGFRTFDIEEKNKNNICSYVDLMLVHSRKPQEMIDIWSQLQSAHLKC
Kind of experiment: Co-IP of FLAG-tagged B3GNT2 followed by mass spectrometry. Format: cell-based. Details: C-term IgG / C-term flag: unit not given here. To be noted: mass spectrometry count, unit not given; for C-term flag / N-term FLAG: Co-IP with FLAG antibody; for C-term flag / C-term IgG: C-terminally FLAG-tagged B3GNT2; for N-term FLAG / N-term IgG: N-terminally FLAG-tagged B3GNT2; for C-term IgG / N-term IgG: Co-IP with IgG control antibody. The method, boiled down:
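FLAG-tagged B3GNT2 immunoprecipitated from cell lysate (HEPES, 1% Triton X-100, 150 mM NaCl) with anti-FLAG versus […], overnight at 4° C, then captured on Protein A/G magnetic beads for 4 h. Two biological replicates per condition. Peptides fractionated and analyzed by nano-LC on an Orbitrap Elite in data-dependent mode.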

B1: UBTF (protein)
chain: MNGEADCPTDLEMAAPKGQDRWSQEDMLTLLECMKNNLPSNDSSKFKTTESHMDWEKVAFKDFSGDMCKLKWVEISNEVRKFRTLTELILDAQEHVKNPYKGKKLKKHPDFPKKPLTPYFRFFMEKRAKYAKLHPEMSNLDLTKILSKKYKELPEKKKMKYIQDFQREKQEFERNLARFREDHPDLIQNAKKSDIPEKPKTPQQLWYTHEKKVYLKVRPDEIMRDYIQKHPELNISEEGITKSTLTKAERQLKDKFDGRPTKPPPNSYSLYCAELMANMKDVPSTERMVLCSQQWKLLSQKEKDAYHKKCDQKKKDYEVELLRFLESLPEEEQQRVLGEEKMLNINKKQATSPASKKPAQEGGKGGSEKPKRPVSAMFIFSEEKRRQLQEERPELSESELTRLLARMWNDLSEKKKAKYKAREAALKAQSERKPGGEREERGKLPESPKRAEEIWQQSVIGDYLARFKNDRVKALKAMEMTWNNMEKKEKLMWIKKAAEDQKRYERELSEMRAPPAATNSSKKMKFQGEPKKPPMNGYQKFSQELLSNGELNHLPLKERMVEIGSRWQRISQSQKEHYKKLAEEQQKQYKVHLDLWVKSLSPQDRAAYKEYISNKRKSMTKLRGPNPKSSRTTLQSKSESEEDDEEDEDDEDEDEEEEDDENGDSSEDGGDSSESSSEDESEDGDENEEDDEDEDDDEDDDEDEDNESEGSSSSSSSSGDSSDSDSN
Consider B1, for which the C-term flag came out at 2, the “N-term FLAG” value is 0, the “C-term IgG” value is listed as 0 and the “N-term IgG” value worked out at 0.

B2: DNAJA3 (protein)
chain: GVSLTGTKHNPFICTASFHTSAPLAKEDYYQILGVPRNASQKEIKKAYYQLAKKYHPDTNKDDPKAKEKFSQLAEAYEVLSDEVKRKQYDAYGSAGFDPGASGSQHSYWKGGPTVDPEELFRKIFGEFSSSSFGDFQTVFDQPQEYFMELTFNQAAKGVNKEFTVNIMDTCERCNGKGNEPGTKVQHCHYCGGSGMETINTGPFVMRSTCRRCGGRGSIIISPCVVCRGAGQAKQKKRVMIPVPAGVEDGQTVRMPVGKREIFITFRVQKSPVFRRDGADIHSDLFISIAQALLGGTARAQGLYETINVTIPPGTQTDQKIRMGGKGIPRINSYGYGDHYIHIKIRVPKRLTSRQQSLILSYAEDETDVEGTVNGVTLTSSGKRSTGN
Consider B2, for which the C-term flag is listed as 2, the “N-term FLAG” value turned out to be 0, the “C-term IgG” value worked out at 0 and the “N-term IgG” value came out at 0.

B3: IFI16 (protein)
chain: MGKKYKNIVLLKGLEVINDYHFRMVKSLLSNDLKLNLKMREEYDKIQIADLMEEKFRGDAGLGKLIKIFEDIPTLEDLAETLKKEKLKVKGPALSRKRKKEVDATSPAPSTSSTVKTEGAEATPGAQKRKKSTKEKAGPKGSKVSEEQTQPPSPAGAGMSTAMGRSPSPKTSLSAPPNSSSTENPKTVAKCQVTPRRNVLQKRPVIVKVLSTTKPFEYETPEMEKKIMFHATVATQTQFFHVKVLNTSLKEKFNGKKIIIISDYLEYDSLLEVNEESTVSEAGPNQTFEVPNKIINRAKETLKIDILHKQASGNIVYGVFMLHKKTVNQKTTIYEIQDDRGKMDVVGTGQCHNIPCEEGDKLQLFCFRLRKKNQMSKLISEMHSFIQIKKKTNPRNNDPKSMKLPQEQRQLPYPSEASTTFPESHLRTPQMPPTTPSSSFFTKKSEDTISKMNDFMRMQILKEGSHFPGPFMTSIGPAESHPHTPQMPPSTPSSSFLTTLKPRLKTEPEEVSIEDSAQSDLKEVMVLNATESFVYEPKEQKKMFHATVATENEVFRVKVFNIDLKEKFTPKKIIAIANYVCRNGFLEVYPFTLVADVNADRNMEIPKGLIRSASVTPKINQLCSQTKGSFVNGVFEVHKKNVRGEFTYYEIQDNTGKMEVVVHGRLTTINCEEGDKLKLTCFELAPKSGNTGELRSVIHSHIKVIKTRKNKKDILNPDSSMETSPDFFF
On to B3, for which the C-term flag amounted to 2, the “N-term FLAG” value was 0, the “C-term IgG” value was 0 and the “N-term IgG” value is 0.

B4: RCN1 (protein)
chain: KPTVRKERVVRPDSELGERPPEDNQSFQYDHEAFLGKEDSKTFDQLTPDESKERLGKIVDRIDNDGDGFVTTEELKTWIKRVQKRYIFDNVAKVWKDYDRDKDDKISWEEYKQATYGYYLGNPAEFHDSSDHHTFKKMLPRDERRFKAADLNGDLTATREEFTAFLHPEEFEHMKEIVVLETLEDIDKNGDGFVDQDEYIADMFSHEENGPEPDWVLSEREQFNEFRDLNKDGKLDKDEIRHWILPQDYDHAQAEARHLVYESDKNKDEKLTKEEILENWNMFVGSQATNYGEDLTKNHDEL
With B4, the C-term flag came out at 9, the “N-term FLAG” value is reported as 0, the “C-term IgG” value turned out to be 0 and the “N-term IgG” value was 0.

B5: PDIA4 (protein)
chain: VAGAEGPDEDSSNRENAIEDEEEEEEEDDDEEEDDLEVKEENGVLVLNDANFDNFVADKDTVLLEFYAPWCGHCKQFAPEYEKIANILKDKDPPIPVAKIDATSASVLASRFDVSGYPTIKILKKGQAVDYEGSRTQEEIVAKVREVSQPDWTPPPEVTLVLTKENFDEVVNDADIILVEFYAPWCGHCKKLAPEYEKAAKELSKRSPPIPLAKVDATAETDLAKRFDVSGYPTLKIFRKGRPYDYNGPREKYGIVDYMIEQSGPPSKEILTLKQVQEFLKDGDDVIIIGVFKGESDPAYQQYQDAANNLREDYKFHHTFSTEIAKFLKVSQGQLVVMQPEKFQSKYEPRSHMMDVQGSTQDSAIKDFVLKYALPLVGHRKVSNDAKRYTRRPLVVVYYSVDFSFDYRAATQFWRSKVLEVAKDFPEYTFAIADEEDYAGEVKDLGLSESGEDVNAAILDESGKKFAMEPEEFDSDTLREFVTAFKKGKLKPVIKSQPVPKNNKGPVKVVVGKTFDSIVMDPKKDVLIEFYAPWCGHCKQLEPVYNSLAKKYKGQKGLVIAKMDATANDVPSDRYKVEGFPTIYFAPSGDKKNPVKFEGGDRDLEHLSKFIEEHATKLSRTKEEL
Take B5: the C-term flag is on record as 9, the “N-term FLAG” value worked out at 0, the “C-term IgG” value is 0 and the “N-term IgG” value was 0.

B6: PSMC2 (protein)
chain: PDYLGADQRKTKEDEKDDKPIRALDEGDIALLKTYGQSTYSRQIKQVEDDIQQLLKKINELTGIKESDTGLAPPALWDLAADKQTLQSEQPLQVARCTKIINADSEDPKYIINVKQFAKFVVDLSDQVAPTDIEEGMRVGVDRNKYQIHIPLPPKIDPTVTMMQVEEKPDVTYSDVGGCKEQIEKLREVVETPLLHPERFVNLGIEPPKGVLLFGPPGTGKTLCARAVANRTDACFIRVIGSELVQKYVGEGARMVRELFEMARTKKACLIFFDEIDAIGGARFDDGAGGDNEVQRTMLELINQLDGFDPRGNIKVLMATNRPDTLDPALMRPGRLDRKIEFSLPDLEGRTHIFKIHARSMSVERDIRFELLARLCPNSTGAEIRSVCTEAGMFAIRARRKIATEKDFLEAVNKVIKSYAKFSATPRYMTYN
Take B6: the C-term flag was found to be 0, the “N-term FLAG” value is on record as 2, the “C-term IgG” value was 0 and the “N-term IgG” value is 0.

B7: ATAD3A (protein)
chain: SWLFGINKGPKGEGAGPPPPLPPAQPGAEGGGDRGLGDRPAPKDKWSNFDPTGLERAAKAARELEHSRYAKDALNLAQMQEQTLQLEQQSKLKEYEAAVEQLKSEQIRAQAEERRKTLSEETRQHQARAQYQDKLARQRYEDQLKQQQLLNEENLRKQEESVQKQEAMRRATVEREMELRHKNEMLRVEAEARARAKAERENADIIREQIRLKAAEHRQTVLESIRTAGTLFGEGFRAFVTDWDKVTATVAGLTLLAVGVYSAKNATLVAGRFIEARLGKPSLVRETSRITVLEALRHPIQVSRRLLSRPQDALEGVVLSPSLEARVRDIAIATRNTKKNRSLYRNILMYGPPGTGKTLFAKKLALHSGMDYAIMTGGDVAPMGREGVTAMHKLFDWANTSRRGLLLFVDEADAFLRKRATEKISEDLRATLNAFLYRTGQHSNKFMLVLASNQPEQFDWAINDRINEMVHFDLPGQEERERLVRMYFDKYVLKPATEGKQRLKLAQFDYGRKCSEVARLTEGMSGREIAQLAVSWQATAYASEDGVLTEAMMDTRVQDAVQQHQQKMCWLKAEGPGRGDEPSPS
For the molecule B7, the C-term flag was found to be 9, the “N-term FLAG” value is reported as 0, the “C-term IgG” value is on record as 0 and the “N-term IgG” value came to 0.

B8: PGAM5 (protein)
chain: MAFRQALQLAACGLAGGSAAVLFSAVAVGKPRAGGDAEPRPAEPPAWAGGARPGPGVWDPNWDRREPLSLINVRKRNVESGEEELASKLDHYKAKATRHIFLIRHSQYHVDGSLEKDRTLTPLGREQAELTGLRLASLGLKFNKIVHSSMTRAIETTDIISRHLPGVCKVSTDLLREGAPIEPDPPVSHWKPEAVQYYEDGARIEAAFRNYIHRADARQEEDSYEIFICHANVIRYIVCRALQFPPEGWLRLSLNNGSITHLVIRPNGRVALRTLGDTGFMPPDKITRS
As for B8, the C-term flag stood at 5, the “N-term FLAG” value is reported as 4, the “C-term IgG” value amounted to 0 and the “N-term IgG” value is given as 0.
